# Source: the DeepSol protein solubility set
# Experiment: soluble on expression in E. coli; label from the status in PepcDB or PDB records
row,Sequence,soluble on expression in E. coli
1,MGSDKIHHHHHHMTVHHHHHTHHVSLHKIKKLFSKHSSHGHKLTRDEARSALHDIEHLAKELHFQKVFDHHAHDGHISLKGFLSFISPHHGHHTHHAHGAHPGHHEVHHHHHHVKAQDSSSSSSSSSSSSSSSSSSSSSSSSSSSESEDEKHHHKKHAKKHLKKHHKKAESSSSSSSSSSSSSSSSSSSSSSESEDEKHHHKKHAKKHLKKHHKKAESSSSSSSSSSSSSSSSSSSSSSSESEDEKHHHKKHAVKKHHKKAESSSSSSSSSSSSSSSSSSEDEKHHHKKHAAKKHVKHHKKAASSSSSSSSSSSSSSSSSSSSSSESEDEKKKKKVHHKKSHGKKHHKKAASSSSSSSSSSSSSSSSSSSESEDEKKHAPAHHEHHEHKDGAHHEHKEGEHHEHAAHHDEHGVHHRHHGEHHGTHHSPAHHGEHGTHHGHHGEHHHAPAHHGHHESHGHGHHSPAHHGHHGEHHHAPAHHGHHGEHHHAPAHHGHHGEHGTHHGHHGSHHSPAHHGHHGEHHHAPAHHGHHGEHGTHHGHHGEHHHAPAHHGHHGEHGTHHGHHGSHHSPAHHGHHGEHHHAPAHHGHHGHHGSHGVHHGHHESHGHGHHAPAHHGHHGEHGVHHGHHGAGYGAHHGHHGAHHHHAPHHEHHEHHGDHHHGSHGVHHGHHGTHHSLAHHGHHGGHGTHHGAHHSPAHHGHHGAHHEHGAHHGAHHGHHDDKENHHHHGHHSKHSKKQHTKKSHKKSH,not soluble
2,MGSDKIHHHHHHMATLLLEDGTIESNLDEIARELAPLGVYIKHYDPGTSILFPHLLIQDALTDKEKCHIVDLHNSVFEFIQQENGYLWCDLLNVHPGSPNLQTLIATYAKYHTHTAPEALYVLAGEMIFGFVKPDGSQVQLLVQSQDYLHIPSGVEHWCSLTASLSFKAVRYFTAADGWVPNYTGTQLNDSLNK,not soluble
3,MHMEQDVNAALRPAYRHRYLQKGHHHSRNAVVDHQELTEKLNRLTSTSSLGSSLPSLSSLHSNSSIGTMPSAKIGDGSTSSLPMSSAKPMSTQTSEPQLPDVPEPNESLHNKTIDEFQKDQEKCDRLKARKAELEMRLRQKMQELKDVCVEEGDITGEMPVEINDVVLPGDDFPRLKRRVGTAYSIPDELIKADKADKMSQLETDVELHRRIVAAASRLATDKNTNKSVRKKRQKDLQAARLRLNRLEQGLQQMRHSASKPDISSLTSDSSNSWTASNSSGPMLTMAMTKSCPTTPRGSVPDLRNGLDDEKDEFDENVEDRVSRRAPSAISRHSLSQRYSGVSSSSTSSGSDSMGLGLPPRPTSRKSQQQQTTPFDDQLDNPMICEIPPPPSSAAAHPLYENVGYRSTSYRSSYRQAHYPTIQDEHTQRKRAQSAHSISTDNGATGRTSTYSVPLNDAAQKFREYDYDDEEDSTPTMDLPSHLINVRRLTSSISCQAGFATASLDRRYSKLNGGRLSSGGGGSDDVVRQNVTTRITTFPVATSAATVILSGKPYSASELPRFQPPPPVARVTHMPRGSLPPYSSATMGAQSPAPPPNGKLPTNPQMEALLSYYKQQQQQQHQQQSRSAPSQQPKTATIV,not soluble
4,MNRISTSSVNSSFSYSAPAEEAQNRVSSAPTNSSPPGTTTAVAQASEGQKKPGAVLSMQAQRLRQLCESSSYQYRQNALLAKSFDAQRLDINTQAGPSNSPHLNALNKLQQRDFKPAAGGLEIPFTPKSLLGGGKRVYQIGSSSRDVQVCPRGAGAALRQEIADKQLMVNHLTDELQDAIDEANQAEIANTSQQLRQARSDLAELQRRFAVLGNEDRRINQ,not soluble
5,METMCEVKVITGTSAAAEAAKLADVDVIAAYPITPQTTCVEKLAEFVANGELDAEYIKVESEHSAMSACIGAAATGARTFTATASQGLALMHEMLFIASGMRLPIVMMVANRALSAPINIWNDHQDSIAERDSGWIQIYVEDNQETLDSIIQAYKIAENEDVLLPVMVCLDGFILTHTVEPVTIPKAERVREFLGVYEPKHAYLDPDRPITQGPVGVPDCYMETRKQIEEAMERAKKVIRDVNEEFAEWFKRKY,not soluble
6,MGSDKIHHHHHHMTSKPSTSDGRAHSISHVPGTHMRGTSASHSPRPFRPCADCTCSPGLLSRQGRRASLFLRQLENSRRSSSMLLNELKGAGGGSSAGNGSVYSCDSLCAVNREVNTTDRLLKLRQEMKKHDLCCYIVPSCDEHQSEYVSLRDQRRAFISGFSGSAGVACITRDLLNFNDDHPDGKSILSTDGRYFNQARQELDYNWTLLRQNEDPITWQEWCVREALEMAKGLGNKEGMVLKIGIDPKLITFNDYVSFRKMIDTKYDAKGKVELVPVEENLVDSIWPDFETLPERPCNDLLLLKYEFHGEEFKDKKEKLLKKLNDKASSATTGRNTFIVVALDEICWLLNLRGSDIDYNPVFFSYVAINEDETILFTNNPFNDDISEYFKINGIEVRPYEQIWEHLTKITSQASSAEHEFLIPDSASWQMVRCLNTSTNANGAIAKKMTAQNFAIIHSPIDVLKSIKNDIEIKNAHKAQVKDAVCLVQYFAWLEQQLVGREALIDEYRAAEKLTEIRKTQRNFMGNSFETISSTGSNAAIIHYSPPVENSSMIDPTKIYLCDSGSQFLEGTTDITRTIHLTKPTKEEMDNYTLVLKGGLALERLIFPENTPGFNIDAIARQFLWSRGLDYKHGTGHGIGSFLNVHEGPMGVGFRPHLMNFPLRAGNIISNEPGYYKDGEYGIRIESDMLIKKATEKGNFLKFENMTVVPYCRKLINTKLLNEEEKTQINEYHARVWRTIVHFLQPQSISYKWLKRETSPL,not soluble
7,FTPVTKAAVINTFDGVADYLIRYKRLPNDYITKSQASALGWVASKGDLAEVAPGKSIGGDVFSNREGRLPSAGSRTWREADINYVSGFRNADRLVYSSDWLIYKTTDHYATFTRIR,soluble
8,MSLVLYRKLKKAKSLEEIKNTFKNLTKSISSLVMRGMHFYDLSNILTEIYDYLVVKVIEMEKERFEREWGKLPSFAWVHMGSSARKEQVIATDQDNAIVHEGDGEGLSQFAESVNNALDYVGIPKCRGGYMAMNWCKSVEEWKSVFSEWFIKLTPDNLRFLSVFLDLRVIYGDEKLCKELIEHIKREHTSQSLRYLAYDATIAEPPLGLFGLRMKKEIDLKMNGIYPIVNGVRVLALEHGLIEVTNTRERLEELKEAHVMDADLAESLKETYEFLQDLRLRLQAKEVVEGKKADNVIKVSEIDRIEAFVLKEGFKVIKKFQNFLKGHYSIERGLEGHHHHHH,soluble
9,MRVSKSKKPTEICPIVSAIAIIGSEPKLLTIRYLLDGPKRFNELQRLTSLSSKTLSKTLKELENHGIVERKIINSHPIVAVYELTDKGKDLKRVFDELRRWGEKFALTKIAVMNSIRVNQEF,soluble
10,MSLKPVIGITGNRLVKGVDVFYGHRVTYTQQRYVDAIQKVGGFPIALPIDDPSTAVQAISLVDGLLLTGGQDITPQLYLEEPSQEIGAYFPPRDSYEIALVRAALDAGKPIFAICRGMQLVNVALGGTLYQDISQVETKALQHLQRVDEQLGSHTIDIEPTSELAKHHPNKKLVNSLHHQFIKKLAPSFKVTARTADGMIEAVEGDNLPSWYLGVQWHPELMFQTDPESEQLFQALVDESKKTMVKEGHHHHHH,soluble
11,MQKALETKRLTLSYGETIIIDELNLEIPKGEITIFIGSNGCGKSTLLRSLARLLKPTTGDILLDNQAIQSMQTKQIARQMAILPQGPQAPEGLTVLQLVKQGRYPYQTWLKQWSEKDEEMVQNALAATGMTEFAERDVHALSGGQRQRAWIAMTLAQDTDIILLDEPTTYLDMTHQIEVLDLLFELNETEQRTIVMVLHDLNLACRYADNIVAIQDKQIYAQGKPEEVVDEKLVRDVFRMECQISTDPLFGTPLCIPHGKGRRVRKEVAHAMR,not soluble
12,SNAMQNRWAETKFDSDIDEVVYGSRLIGSDPDLVLHGGGNTSVKTTERDHAGRIISVLRVKNSGSNLGTIDSRGFTGIRMDDALAAAKIDKMTDEAMVDYLKKSMVNPSEPSPSVETFLHAFLPYKFVMHSHADAILSITNTDLPSDQIAKILGNVVVLPYIPPGFTLAKEVMNCFKKGIDGIVLRKHGLLTFGDTGKEAYDRHINIVSRAENFIREKTDGK,soluble
13,MAKQSGGKPQIDEDFMKEIISQGLPVKKQETPLVTVETPDKPETVNKEEIKAEPKEEKAVKEPARRKKNTPGDYRETYFMRVDLTDRQPLYVSRTTHEKLMKIVTVIGGRKATVSSYVENILLRHFDQFQDEINELYESKFEKPF,soluble
14,MGSDKIHHHHHHMPTIAEKLKSRESDLTRAERQLSAAILDNYPIPGLGSITELAELAEVSTPTVARMVQKLGFSGYPEFQHALREELREIISNPVEKRAEQAPELPEGHMLNRYAVAVYDNIRATLENVNLEEFDTLCALLADTNSRVHIAGGRLSGTLAQNFYLHLQMIRRDVFMIPPRASWTHSVLDLLPGDTLILFDIRRYENATLLLAEMAHERGVKVVLFTDQWRSPIQKEATFTFAARIAVPSAWDSGVALLLLIESMIAKIQEDHWDTVKARNDELEAAFDRTRLFRKFT,not soluble
15,MSLTEKKCTVMLSKFKRNKHQQHLAQLPKISQSVDDVDFFYAPADFRETLLEKIASAKQRICIVALYLEQDDGGKGILNALYEAKRQRPELDVRVLVDWHRAQRGRIGAAASNTNADWYCRMAQENPGVDVPVYGVPINTREALGVLHFKGFIIDDSVLYSGASLNDVYLHQHDKYRYDRYHLIRNRKMSDIMFEWVTQNIMNGRGVNRLDDVNRPKSPEIKNDIRLFRQELRDAAYHFQGDADNDQLSVTPLVGLGKSSLLNKTIFHLMPCAEQKLTICTPYFNLPAILVRNIIQLLREGKKVEIIVGDKTANDFYIPEDEPFKIIGALPYLYEINLRRFLSRLQYYVNTDQLVVRLWKDDDNTYHLKGMWVDDKWMLITGNNLNPRAWRLDLENAILIHDPQLELAPQREKELELIREHTTIVKHYRDLQSIADYPVKVRKLIRRLRRIRIDRLISRILEGHHHHHH,not soluble
16,MAHHHHHHMKDIINSDFEDNKDERVIIVDENNEFQELKARKIMRMENLWHRSTSIFVFTKIGEEYFIYVHKRSKVKDYCPSYYSIGFGGVVSENEDMLGNAVKELEEESGIKKSPEQLFDLGVVKCDTECSRSFVGSYVSLTLGKPMPFDGVRPLRIFACSSGNFTLLLIPHAAFFRAVTPSPTGCLHRPRLPDHPPAE,soluble
17,MKDLLQAQQKLIPDLIDKMYKRFSILTTISKNQPVGRRSLSEHMDMTERVLRSETDMLKKQDLIKVKPTGMEITAEGEQLISQLKGYFDIYADDNRLSEGIKNKFQIKEVHVVPGDADNSQSVKTELGRQAGQLLEGILQEDAIVAVTGGSTMACVSEAIHLLPYNVFFVPARGGLGENVVFQANTIAASMAQQAGGYYTTMYVPDNVSETTYNTLLLEPSVINTLDKIKQANVILHGIGDALKMAHRRQSPEKVIEQLQHHQAVGEAFGYYFDTQGQIVHKVKTIGLQLEDLESKDFIFAVAGGKSKGEAIKAYLTIAPKNTVLITDEAAAKIILE,not soluble
18,MKAVTTSPSDPPDPFDPLDPVDPLASTKPEVDVVLPCLDEADALPWVLARIPPGWRALVVDNGSTDGSAEIARRLGATVVPETRRGFGAACHAGLTAATADIVCFCDCDGSLDPSLLVPFVREVRDGAADLVLGRRRPHGRGAWPAHARAGNLALARMLRRRTGLRLHDLGPLRAARREPLLALGLTDRRSGYPLQMVVRAADAGWRIAEHDVPYLPRTGVSKVTGTWRGTWQAVRDMSRVLAEPAQDGPPESGSLSSSQGGSSQLEHHHHHH,not soluble
19,MAHHHHHHMFYMFLTRNDHQDRRRESPPPTPKKHGASFLRRIHLGEFSGRTICISWETLVEKHEWRDCAKETLLALSSNMIVYLMCHISNANEKGKVLSMVKDIPQLARHNILFCETEKGYEAFSRQIKPAILVTHDSAQAEFLSLVLPNVVLVGSSATGSAMTSISSLSELLF,not soluble
20,GSHMGKDCIMHGYMSKMGNPFLTQWQRRYFYLFPNRLEWRGEGEAPQSLLTMEEIQSVEETQIKERKCLLLKIRGGKQFILQCDSDPELVQWKKELRDAYREAQQLVQRVPKMKNKPRS,soluble
